Laboratory results from US20200377563A1 (Pieris, published 2020).
Substitutions are numbered along the chain they refer to. Where “and” joins values, the source holds several entries; their conditions need not be identical. Identical values can stand only once. Like-named read-outs stand apart in the source and are kept apart here.

B1: benchmark 3 (antibody, human IgG1, kappa, V domains shown)
VH: QVQLVQSGAEVKKPGASVKVSCKVSGKTFWSYGINWVRQAPGKGLEWMGYIYIGTGYTEPNPKYKGRVTMTEDTSTDTAYMELSSLRSEDTAVYYCATIGGYYGNFDQWGQGTTVTVSS
VL: DVVMTQSPLSLPVTLGQPASISCRSSQSLLISGGKTYLNWFQQRPGQSPRRLIYLVSKLDQGVPDRFSGSGSGTDFTLKISRVEAEDVGVYYCWQGTYFPLTFGQGTKLEIKR
B2: lipocalin mutein SEQ ID NO: 46 (designed binder)
chain: QDSTSDLIPAPPLSKVPLQQNFQDNQFHGKWYVVGEAGNLLLREDKDPRKMTATIYELREDKSYDVTRVEFGVKTYKYQIGTFVPGSQPGEFTLGGIKSMPGMTSFLVRVVSTDYNQHAMVFFKYVYQNREYFEITLYGRTKELTSELKENFIRFSKSLGLPENHIVFPVPIDQAIDG
B3: lipocalin mutein SEQ ID NO: 45 (designed binder)
chain: B2 chain with L41I, R59K, Y76R, Q79R, D114N
B4: benchmark antibody 2 (antibody, human IgG4, kappa, V domains shown)
VH: QVQLVQSGAEVKKPGSSVKVSCKASGYSFTDYHISWVRQAPGQGLEWMGVINPEYGTTDYNQRFKGRVTITADESTSTAYMELSSLRSEDTAVYYCARYDYFTGTGAYWGQGTLVTVSS
VL: DIVMTQTPLSLSVTPGQPASISCRSSQSLKHSRGNTFLHWYLQKPGQSPQLLIYKVSNRFIGVPDRFSGSGSGTDFTLKISRVEAEDVGVYYCSQSTHYPFTFGQGTKLEIKR
B5: negative control SEQ ID NO: 43 (other)
chain: QDSTSDLIPAPPLSKVPLQQNFQDNQFQGKWYVVGLAGNAILREDKDPQKMYATIYELKEDKSYNVTSVLFRKKKCDYWIRTFVPGCQPGEFTLGNIKSYPGLTSYLVRVVSTNYNQHAMVFFKKVSQNREYFKITLYGRTKELTSELKENFIRFSKSLGLPENHIVFPVPIDQCIDG
B6: cynomolgus monkey IL-17A (ligand)
chain: GIAIPRNSGCPNSEDKNFPRTVMVNLNIHNRNTSTNPKRSSDYYNRSTSPWNLHRNEDPERYPSVIWEAKCRHLGCVKADGNVDYHMNSVPIQQEILVLRREPRHCPNSFRLEKILVSVGCTCVTPIVHHVA
notes: also called cIL-17A
B7: marmoset IL-17A (ligand)
chain: GIASPQNPGCPNAEDKNFPRTVMVNLNIRNRNTNSKRASDYYNRSSSPWNLHRNEDPERYPSVIWEAKCRHLGCVDADGNVDYHMNSVPIQQEILVLRREPRHCTNSFRLEKMLVSVGCTCVTPIVRHVA
notes: also called marmoset monkey IL-17A
B8: human IL-23 (ligand)
chain 1: RAVPGGSSPAWTQCQQLSQKLCTLAWSAHPLVGHMDLREEGDEETTNDVPHIQCGDGCDPQGLRDNSQFCLQRIHQGLIFYEKLLGSDIFTGEPSLLPDSPVGQLHASLLGLSQLLQPEGHHWETQQIPSLSPSQPWQRLLLRFKILRSLQAFVAVAARVFAHGAATLSP
chain 2: IWELKKDVYVVELDWYPDAPGEMVVLTCDTPEEDGITWTLDQSSEVLGSGKTLTIQVKEFGDAGQYTCHKGGEVLSHSLLLLHKKEDGIWSTDILKDQKEPKNKTFLRCEAKNYSGRFTCWWLTTISTDLTFSVKSSRGSSDPQGVTCGAATLSAERVRGDNKEYEYSVECQEDSACPAAEESLPIEVMVDAVHKLKYENYTSSFFIRDIIKPDPPKNLQLKPLKNSRQVEVSWEYPDTWSTPHSYFSLTFCVQVQGKSKREKKDRVFTDKTSATVICRKNASISVRAQDRYYSSSWSEWASVPCS
notes: Heterodimer of p19 and p40; Biotinylated in the ELISA formats; also called hIL-23; hIL23
B9: mouse IL-23 (ligand)
chain 1: VPRSSSPDWAQCQQLSRNLCMLAWNAHAPAGHMNLLREEEDEETKNNVPRIQCEDGCDPQGLKDNSQFCLQRIRQGLAFYKHLLDSDIFKGEPALLPDSPMEQLHTSLLGLSQLLQPEDHPRETQQMPSLSSSQQWQRPLLRSKILRSLQAFLAIAARVFAHGAATLTEPLVPTA
chain 2: MWELEKDVYVVEVDWTPDAPGETVNLTCDTPEEDDITWTSDQRHGVIGSGKTLTITVKEFLDAGQYTCHKGGETLSHSHLLLHKKENGIWSTEILKNFKNKTFLKCEAPNYSGRFTCSWLVQRNMDLKFNIKSSSSSPDSRAVTCGMASLSAEKVTLDQRDYEKYSVSCQEDVTCPTAEETLPIELALEARQQNKYENYSTSFFIRDIIKPDPPKNLQMKPLKNSQVEVSWEYPDSWSTPHSYFSLKFFVRIQRKKEKMKETEEGCNQKGAFLVEKTSTEVQCKGGNVCVQAQDRYYNSSCSKWACVPCRVRS
notes: also called mIL-23
B10: fusion protein of SEQ ID NO: 7 (designed binder)
chain: QDSTSDLIPAPPLSKVPLQQNFQDNQFHGKWYVVGEAGNLLLREDKDPRKMTATIYELKEDKSYDVTRVEFGAKTYKYQIGTFVPGSQPGEFTLGGIESMPGMTSFLVRVVSTNYNQHAIVFFKYVYQNREYFEITLYGRTKELTSELKENFIRFSKSLGLPENHIVFPVPIDQAIDGSGGGGSLAEAKEAANAELDSYGVSDFYKRLIDKAKTVEGVEALKDAILAALPSAWSHPQFEK

Experiments:
[1] = biological target: B8; test: cell-based or functional assay
[2] = biological target: B8; test: competition ELISA (MSD), biotinylated hIL-23 pre-incubated with binder, free hIL-23 captured on coated hIL-23R
[3] = biological target: B8; test: SPR (Biacore T200), hIL-23 amine-coupled on chip, mutein as analyte
[4] = biological target: human IL-17A (human, UniProt Q16552 24-155, limits assumed); test: cell-based or functional assay
[5] = biological target: B8; test: competition ELISA (MSD): biotinylated hIL-23 tracer pre-incubated with the titrated control, free hIL-23 captured on coated soluble hIL-23R
Description: (§1) All incubation steps were performed with shaking 300 rpm, and the plate was washed after each incubation step with 80 μl PBS/0.05% Tween 20 for five times using a Biotek EL405 select CW washer. […] After washing, the receptor-coated wells were blocked with 60 μl PBS-T/BSA for 1 h at room temperature.
(§2) After washing, 60 μl MSD Read Buffer T (2×) was added to each well and the plate was read within 15 min.
(§3) The resulting ECL signal was measured using the SECTOR Imager 2400 (Meso Scale Discovery).

[6] = biological target: T1, lipocalin mutein of SEQ ID NO: 1; test: solution competition ELISA: 0.25 nM SEQ ID NO: 1 pre-incubated with varied ligand, free mutein captured on immobilised biotinylated hIL-17A
T1 construct: Mutein of human tear lipocalin; also called Tlc mutein
T1 sequence (chain, as listed by the source): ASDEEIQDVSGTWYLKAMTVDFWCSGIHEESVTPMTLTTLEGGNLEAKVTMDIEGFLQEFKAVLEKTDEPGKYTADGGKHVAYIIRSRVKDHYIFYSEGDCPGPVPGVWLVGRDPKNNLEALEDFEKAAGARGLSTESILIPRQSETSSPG
Description: In the following detailed experimental protocol, incubation and washing steps were performed as described above in the competition ELISA protocol. A 384-well plate suitable for fluorescence measurements (Greiner FLUOTRAC™ 600, black flat bottom, high-binding) was coated with 20 μl of Neutravidin at a concentration of 5 μg/ml in PBS over night at 4° C. After washing, the Neutravidin-coated wells were blocked with 100 μl blocking buffer (PBS-T/BSA) for 1h at room temperature.

[7] = biological target: T2, lipocalin mutein of SEQ ID NO: 2; test: solution competition ELISA: 0.5 nM SEQ ID NO: 2 pre-incubated with varied ligand, free mutein captured on immobilised biotinylated hIL-23
T2 construct: Mutein of human lipocalin 2 (NGAL); Also used as negative control in the IL-17A cell assay; also called hNGAL mutein

[8] = biological target: B8; test: SPR (Biacore T200), biotinylated binder captured on CAP chip, hIL-23 as analyte, buffer with 350 mM NaCl
Description: To this end, undiluted Biotin CAPture Reagent was applied at a flow rate of 2 μL/min for 300 s. […] The reference channel was loaded with Biotin CAPture Reagent only.
Applying a flow rate of 30 μL/min, a single cycle kinetics approach was used with a sample contact time of 300 s and a dissociation time of 4000 s or 7200 s. After ligand immobilization, all 5 concentrations were applied consecutively in ascending order before the dissociation was monitored. All measurements were performed at 25° C.

[9] = biological target: B8; test: competition ELISA (MSD), biotinylated hIL-23 pre-incubated with binder, free hIL-23 captured on coated hIL-23R; remark: listed apart in the source
Description: as §1, §2, §3

What does the source list for B1?
hIL-23-induced proliferation of Ba/F3 cells with hIL-23R and hIL-12Rβ1, EC50, average [1]: 3 nM; hIL-23-induced proliferation of Ba/F3 cells, EC50, single experiment [1]: 3.1 nM and 2.9 nM

Which IC50 [2] does the source give for B2 here?
The IC50 was 1.1 nM.

What about the “hIL-23-induced proliferation of Ba/F3 cells with hIL-23R and hIL-12Rβ1, EC50” value [1] of the same binder?
The value was 5.4 nM.

What about the Kd [3] of the same binder?
Its Kd is 0.6 nM.

And the koff [3]?
The koff was 4e-05 s⁻¹.

And the kon [3]?
The kon was 70000 M⁻¹ s⁻¹.

What does the source list for B3?
IC50 [2]: 0.1 nM; hIL-23-induced proliferation of Ba/F3 cells with hIL-23R and hIL-12Rβ1, EC50 [1]: 3.7 nM; Kd [3]: 0.1 nM; koff [3]: 3e-05 s⁻¹; kon [3]: 300000 M⁻¹ s⁻¹

What does the source list for B4?
IL-17A-induced G-CSF secretion in U87-MG cells, EC50, average [4]: 0.12 nM; IL-17A-induced G-CSF secretion in U87-MG cells, EC50, single experiment [4]: 0.14 nM and 0.1 nM

Does B5 bind [5]?
Result: no binding

How did the IC50 [6] turn out when B6 was run?
The IC50 was 0.1 nM.

How did the IC50 [6] turn out when B7 was run?
The IC50 was 0.2 nM.

How did the IC50 [7] turn out when B8 was run?
The IC50 was 0.9 nM.

With B9 as the binder, how does the IC50 [7] read?
Its IC50 is 0.5 nM.

Which results are given for B10?
Kd [8]: 2.4 nM; IC50 [9]: 1.11 nM
